# Reference: IntAct's records for PubMed 29039417
# B1: Protein PTHB1 (Homo sapiens), Q3SYG4 (parent)
# chain: MSLFKARDWWSTILGDKEEFDQGCLCLANVDNSGNGQDKIIVGSFMGYLRIFSPHPAKTGDGAQAEDLLLEVDLRDPVLQVEVGKFVSGTEMLHLAVLHSRKLCVYSVSGTLGNVEHGNQCQMKLMYEHNLQRTACNMTYGSFGGVKGRDLICIQSMDGMLMVFEQESYAFGRFLPGFLLPGPLAYSSRTDSFLTVSSCQQVESYKYQVLAFATDADKRQETEQQKLGSGKRLVVDWTLNIGEQALDICIVSFNQSASSVFVLGERNFFCLKDNGQIRFMKKLDWSPSCFLPYCSVSEGTINTLIGNHNNMLHIYQDVTLKWATQLPHIPVAVRVGCLHDLKGVIVTLSDDGHLQCSYLGTDPSLFQAPNVQSRELNYDELDVEMKELQKIIKDVNKSQGVWPMTEREDDLNVSVVVSPNFDSVSQATDVEVGTDLVPSVTVKVTLQNRVILQKAKLSVYVQPPLELTCDQFTFEFMTPDLTRTVSFSVYLKRSYTPSELEGNAVVSYSRPTDRNPDGIPRVIQCKFRLPLKLICLPGQPSKTASHKITIDTNKSPVSLLSLFPGFASQSDDDQVNVMGFHFLGGARITVLASKTSQRYRIQSEQFEDLWLITNELILRLQEYFEKQGVKDFACSFSGSIPLQEYFELIDHHFELRINGEKLEELLSERAVQFRAIQRRLLARFKDKTPAPLQHLDTLLDGTYKQVIALADAVEENQGNLFQSFTRLKSATHLVILLIALWQKLSADQVAILEAAFLPLQEDTQELGWEETVDAAISHLLKTCLSKSSKEQALNLNSQLNIPKDTSQLKKHITLLCDRLSKGGRLCLSTDAAAPQTMVMPGGCTTIPESDLEERSVEQDSTELFTNHRHLTAETPRPEVSPLQGVSE
# partner: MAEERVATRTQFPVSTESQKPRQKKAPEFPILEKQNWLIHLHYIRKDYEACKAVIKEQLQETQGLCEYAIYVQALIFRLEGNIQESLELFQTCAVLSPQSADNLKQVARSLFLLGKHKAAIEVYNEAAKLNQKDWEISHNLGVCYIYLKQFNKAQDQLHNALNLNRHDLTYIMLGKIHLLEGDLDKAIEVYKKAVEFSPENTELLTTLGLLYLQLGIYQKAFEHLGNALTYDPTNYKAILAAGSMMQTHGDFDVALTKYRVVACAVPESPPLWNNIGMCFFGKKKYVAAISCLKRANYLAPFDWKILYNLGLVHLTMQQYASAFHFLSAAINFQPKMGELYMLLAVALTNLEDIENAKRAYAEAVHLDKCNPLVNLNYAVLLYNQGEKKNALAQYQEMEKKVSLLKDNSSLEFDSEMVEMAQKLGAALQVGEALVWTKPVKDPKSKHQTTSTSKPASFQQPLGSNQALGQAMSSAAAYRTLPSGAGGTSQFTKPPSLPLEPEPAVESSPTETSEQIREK
# Variants of: B1
# Settings: with bbs4_human BBS4, Q96RK4
row,Variant,effect of a mutation on the interaction
1,F673K,with no effect
2,F673E,with no effect
3,F673A,with no effect
4,D650K,with no effect
5,D650E,with no effect
6,D650A,with no effect
7,R656K,with no effect
8,R656A,with no effect
9,R656E,with no effect
10,I649E,with no effect
11,I649A,with no effect
12,I649K,with no effect
13,E668K,with no effect
14,E668A,with no effect
15,E654A,disrupting interaction strength
16,E654K,disrupting interaction strength
17,E663A,with no effect
18,E663K,with no effect
19,N658K,with no effect
20,N658E,with no effect
21,N658A,with no effect
22,E664K,with no effect

row,Variant,effect of a mutation on the interaction
1,E664A,with no effect
2,L666K,with no effect
3,L666E,disrupting interaction strength
4,L666A,with no effect
5,R674P,disrupting interaction strength
6,R674A,disrupting interaction strength
7,R674W,disrupting interaction strength
8,R674Q,disrupting interaction strength
9,R674K,with no effect
10,R674E,with no effect
11,A670E,with no effect
12,A670K,with no effect
13,G659A,with no effect
14,G659D,disrupting interaction strength
15,G659E,with no effect
16,G659K,with no effect
17,R669A,with no effect
18,R669E,with no effect
19,R669K,with no effect
20,L662E,with no effect
21,L662K,with no effect
22,L662A,with no effect

row,Variant,effect of a mutation on the interaction
1,E647A,with no effect
2,E647G,disrupting interaction strength
3,E647K,disrupting interaction strength
4,F653A,with no effect
5,F653K,with no effect
6,F653E,with no effect
7,V671A,with no effect
8,V671K,with no effect
9,V671I,disrupting interaction strength
10,V671E,with no effect
11,V671R,disrupting interaction strength
12,L655A,with no effect
13,L655K,with no effect
14,L655E,with no effect
15,Q672E,with no effect
16,Q672K,with no effect
17,Q672A,with no effect
18,F646E,with no effect
19,F646K,with no effect
20,S667E,with no effect
21,S667A,with no effect
22,S667K,with no effect

row,Variant,effect of a mutation on the interaction
1,H652A,with no effect
2,H652K,with no effect
3,H652E,with no effect
4,L648K,with no effect
5,L648E,with no effect
6,L648A,with no effect
7,L665A,with no effect
8,L665K,with no effect
9,L665R,disrupting interaction strength
10,L665F,disrupting interaction strength
11,L665E,with no effect
12,H651K,with no effect
13,H651A,with no effect
14,H651E,with no effect
15,K661E,with no effect
16,K661A,with no effect
17,E660K,with no effect
18,E660A,with no effect
19,I657K,with no effect
20,I657E,with no effect
21,I657A,with no effect
